This data set deals with the molecule itself. Briefly: SEC. A general note: In gel filtration, larger molecules generally elute earlier.

Consider two proteins from paper doi:10.1101/2021.07.08.451689 (bioRxiv, 2021).

B1: MLKL N-terminal domain of 154 amino acid residues with mutation D144K (domain or fragment, human, UniProt Q8NB16 1-154, looked up)
chain: MENLKHIITLGQVIHKRCEEMKYCKKQCRRLGHRVLGLIKPLEMLQDQGKRSVPSEKLTTAMNRFKAALEEANGEIEKFSNRSNICRFLTASQDKILFKDVNRKLSDVWKELSLLLQVEQRMPVSPISQGASWAQEDQQDADEKRRAFQMLRRD
Consider B1, for which the binding result is given as “binds”.

B2: MLKL N-terminal domain of 139 amino acid residues (domain or fragment, human, UniProt Q8NB16 1-139, looked up)
chain: MENLKHIITLGQVIHKRCEEMKYCKKQCRRLGHRVLGLIKPLEMLQDQGKRSVPSEKLTTAMNRFKAALEEANGEIEKFSNRSNICRFLTASQDKILFKDVNRKLSDVWKELSLLLQVEQRMPVSPISQGASWAQEDQQ
As for B2, the binding result was “binds”.
